Results published in the Human Domainome abundance scans (Beltran et al. 2025).
± gives the uncertainty stated by the source.

B1: Far upstream element-binding protein 1, residues 98 to 169; numbered along this chain, Q96AE4 (parent)
chain: RSVMTEEYKVPDGMVGFIIGRGGEQISRIQQESGCKIQIAPDSGGLPERSCMLTGTPESVQSAKRLLDQIVE

Variants of: B1
Experiment: abundance fitness (aPCA) (normalised: wild type 0, dead -1); higher = more abundant; growth selection in yeast, the domain comes from the species named
Conditions: Homo sapiens

Row | Variant | abundance fitness
1 | RSVMTEEYKVPDGMVGFIIGRGGEQISDIQQESGCKIQIAPDSGGLPERSCMLTGTPESVQSAKRLLDQIVE [R28D] | -0.016 ± 0.041
2 | RSVMTEEYKVPDGMVGFIIGRGGEQISEIQQESGCKIQIAPDSGGLPERSCMLTGTPESVQSAKRLLDQIVE [R28E] | -0.058 ± 0.03
3 | RSVMTEEYKVPDGMVGFIIGRGGEQISFIQQESGCKIQIAPDSGGLPERSCMLTGTPESVQSAKRLLDQIVE [R28F] | -0.168 ± 0.05
4 | RSVMTEEYKVPDGMVGFIIGRGGEQISGIQQESGCKIQIAPDSGGLPERSCMLTGTPESVQSAKRLLDQIVE [R28G] | -0.093 ± 0.024
5 | RSVMTEEYKVPDGMVGFIIGRGGEQISHIQQESGCKIQIAPDSGGLPERSCMLTGTPESVQSAKRLLDQIVE [R28H] | -0.021 ± 0.057
6 | RSVMTEEYKVPDGMVGFIIGRGGEQISIIQQESGCKIQIAPDSGGLPERSCMLTGTPESVQSAKRLLDQIVE [R28I] | -0.215 ± 0.059
7 | RSVMTEEYKVPDGMVGFIIGRGGEQISKIQQESGCKIQIAPDSGGLPERSCMLTGTPESVQSAKRLLDQIVE [R28K] | -0.028 ± 0.038
8 | RSVMTEEYKVPDGMVGFIIGRGGEQISLIQQESGCKIQIAPDSGGLPERSCMLTGTPESVQSAKRLLDQIVE [R28L] | -0.071 ± 0.03
9 | RSVMTEEYKVPDGMVGFIIGRGGEQISMIQQESGCKIQIAPDSGGLPERSCMLTGTPESVQSAKRLLDQIVE [R28M] | -0.083 ± 0.036
10 | RSVMTEEYKVPDGMVGFIIGRGGEQISNIQQESGCKIQIAPDSGGLPERSCMLTGTPESVQSAKRLLDQIVE [R28N] | -0.102 ± 0.048
11 | RSVMTEEYKVPDGMVGFIIGRGGEQISQIQQESGCKIQIAPDSGGLPERSCMLTGTPESVQSAKRLLDQIVE [R28Q] | -0.033 ± 0.038
12 | RSVMTEEYKVPDGMVGFIIGRGGEQISSIQQESGCKIQIAPDSGGLPERSCMLTGTPESVQSAKRLLDQIVE [R28S] | -0.045 ± 0.029
13 | RSVMTEEYKVPDGMVGFIIGRGGEQISTIQQESGCKIQIAPDSGGLPERSCMLTGTPESVQSAKRLLDQIVE [R28T] | -0.068 ± 0.035
14 | RSVMTEEYKVPDGMVGFIIGRGGEQISVIQQESGCKIQIAPDSGGLPERSCMLTGTPESVQSAKRLLDQIVE [R28V] | -0.108 ± 0.028
15 | RSVMTEEYKVPDGMVGFIIGRGGEQISWIQQESGCKIQIAPDSGGLPERSCMLTGTPESVQSAKRLLDQIVE [R28W] | -0.104 ± 0.032
16 | RSVMTEEYKVPDGMVGFIIGRGGEQISYIQQESGCKIQIAPDSGGLPERSCMLTGTPESVQSAKRLLDQIVE [R28Y] | -0.131 ± 0.044
17 | RSVMTEEYKVPDGMVGFIIGRGGEQISRAQQESGCKIQIAPDSGGLPERSCMLTGTPESVQSAKRLLDQIVE [I29A] | -0.226 ± 0.03
18 | RSVMTEEYKVPDGMVGFIIGRGGEQISRCQQESGCKIQIAPDSGGLPERSCMLTGTPESVQSAKRLLDQIVE [I29C] | -0.179 ± 0.041
19 | RSVMTEEYKVPDGMVGFIIGRGGEQISRDQQESGCKIQIAPDSGGLPERSCMLTGTPESVQSAKRLLDQIVE [I29D] | -0.935 ± 0.083

Row | Variant | abundance fitness
20 | RSVMTEEYKVPDGMVGFIIGRGGEQISREQQESGCKIQIAPDSGGLPERSCMLTGTPESVQSAKRLLDQIVE [I29E] | -0.781 ± 0.04
21 | RSVMTEEYKVPDGMVGFIIGRGGEQISRFQQESGCKIQIAPDSGGLPERSCMLTGTPESVQSAKRLLDQIVE [I29F] | -0.144 ± 0.053
22 | RSVMTEEYKVPDGMVGFIIGRGGEQISRGQQESGCKIQIAPDSGGLPERSCMLTGTPESVQSAKRLLDQIVE [I29G] | -0.943 ± 0.035
23 | RSVMTEEYKVPDGMVGFIIGRGGEQISRHQQESGCKIQIAPDSGGLPERSCMLTGTPESVQSAKRLLDQIVE [I29H] | -0.423 ± 0.11
24 | RSVMTEEYKVPDGMVGFIIGRGGEQISRKQQESGCKIQIAPDSGGLPERSCMLTGTPESVQSAKRLLDQIVE [I29K] | -0.881 ± 0.065
25 | RSVMTEEYKVPDGMVGFIIGRGGEQISRMQQESGCKIQIAPDSGGLPERSCMLTGTPESVQSAKRLLDQIVE [I29M] | -0.042 ± 0.034
26 | RSVMTEEYKVPDGMVGFIIGRGGEQISRNQQESGCKIQIAPDSGGLPERSCMLTGTPESVQSAKRLLDQIVE [I29N] | -0.787 ± 0.09
27 | RSVMTEEYKVPDGMVGFIIGRGGEQISRPQQESGCKIQIAPDSGGLPERSCMLTGTPESVQSAKRLLDQIVE [I29P] | -0.906 ± 0.073
28 | RSVMTEEYKVPDGMVGFIIGRGGEQISRQQQESGCKIQIAPDSGGLPERSCMLTGTPESVQSAKRLLDQIVE [I29Q] | -0.915 ± 0.12
29 | RSVMTEEYKVPDGMVGFIIGRGGEQISRRQQESGCKIQIAPDSGGLPERSCMLTGTPESVQSAKRLLDQIVE [I29R] | -0.876 ± 0.038
30 | RSVMTEEYKVPDGMVGFIIGRGGEQISRSQQESGCKIQIAPDSGGLPERSCMLTGTPESVQSAKRLLDQIVE [I29S] | -0.682 ± 0.039
31 | RSVMTEEYKVPDGMVGFIIGRGGEQISRTQQESGCKIQIAPDSGGLPERSCMLTGTPESVQSAKRLLDQIVE [I29T] | -0.211 ± 0.034
32 | RSVMTEEYKVPDGMVGFIIGRGGEQISRVQQESGCKIQIAPDSGGLPERSCMLTGTPESVQSAKRLLDQIVE [I29V] | -0.031 ± 0.029
33 | RSVMTEEYKVPDGMVGFIIGRGGEQISRWQQESGCKIQIAPDSGGLPERSCMLTGTPESVQSAKRLLDQIVE [I29W] | -0.26 ± 0.033
34 | RSVMTEEYKVPDGMVGFIIGRGGEQISRYQQESGCKIQIAPDSGGLPERSCMLTGTPESVQSAKRLLDQIVE [I29Y] | -0.246 ± 0.05
35 | RSVMTEEYKVPDGMVGFIIGRGGEQISRIQAESGCKIQIAPDSGGLPERSCMLTGTPESVQSAKRLLDQIVE [Q31A] | -0.026 ± 0.028
36 | RSVMTEEYKVPDGMVGFIIGRGGEQISRIQCESGCKIQIAPDSGGLPERSCMLTGTPESVQSAKRLLDQIVE [Q31C] | 0.001 ± 0.048
37 | RSVMTEEYKVPDGMVGFIIGRGGEQISRIQDESGCKIQIAPDSGGLPERSCMLTGTPESVQSAKRLLDQIVE [Q31D] | 0.034 ± 0.043
38 | RSVMTEEYKVPDGMVGFIIGRGGEQISRIQEESGCKIQIAPDSGGLPERSCMLTGTPESVQSAKRLLDQIVE [Q31E] | 0.028 ± 0.035
